The source of these data is patent US20240084011A1 (NANTBIO, published 2024).

First the molecules themselves.
B1: IgG antibody 78-8D2 HC / 78-8 LC (antibody, V domains shown)
VH: EVQLVESGGGLVQPGGSLRLSCAASGFTFSSYVMHWVRQAPGKGLEWVSAITWSGRGTYYADSVKGRFTISRDNSKNTLYLQMNSLRAEDTAVYYCARGRLFGLALYGEAFDVWGQGTLVTVSS
VL: DIQMTQSPSSLSASVGDRVTITCQASKDISNYLNWYQQKPGKAPKLLIYDASNLETGVPSRFSGSGSGTDFTFTISSLQPEDIATYYCQQFNSFPLTFGQGTKVEIKR
B2: IgG antibody 78-24D1V HC / 78-24 LC (antibody, V domains shown)
VH: EVQLVESGGGLVQPGGSLRLSCAASGFTFTSYSMHWVRQAPGKGLEWVSGISGSGRSTSYADSVKGRFTISRDNSKNTLYLQMNSLRAEDTAVYYCARDLMAFNLVRAGGFDVWGQGTLVTVSS
VL: B1 VL with K27Q, F91G, N92D, S93A, F94W, L96W
B3: IgG antibody 78-8D4 HC / 78-8 LC (antibody, V domains shown)
VH: B1 VH with R56G, A105V, L106R
VL: B1 VL
B4: IgG antibody 78-24D17V HC / 78-24 LC (antibody, V domains shown)
VH: B2 VH with T30S, Y32S, R56G, D99Y, A102S, A108T, G109S, G110W
VL: B1 VL with K27Q, F91G, N92D, S93A, F94W, L96W
B5: IgG antibody 78-24D22V HC / 78-24 LC (antibody, V domains shown)
VH: B2 VH with T30P, R56W
VL: B1 VL with K27Q, F91G, N92D, S93A, F94W, L96W
B6: IgG antibody 78-8D22 HC / 78-8 LC (antibody, V domains shown)
VH: B1 VH with T52S, R56S, L106R
VL: B1 VL

In general, Kd refers to the concentration at which binding is half-saturated.

Positions count from the first letter of the chain named.

The first assay addresses T1, recombinant mouse CTLA-4 protein (mouse, UniProt P09793 36-161).
T1 construct: Recombinant protein used as analyte in SPR/Octet; also called murine CTLA-4; mCTLA-4
Put plainly: SPR (Pioneer FE) or Octet (Red96e), 25 C; IgG captured by anti-human Fc or AHC sensor, mCTLA-4 as analyte.
Text: (§1) All values shown in Table 5 are ×10⁻⁹ M. Antibodies were captured on the chip surface using anti-human Fc antibody (SPR) or AHC sensor (Octet).
With B1, the equilibrium dissociation constant (Kd) worked out at 0.32 nM.

For B2, the dissociation constant Kd came to 0.18 nM.

As for B3, the dissociation constant (Kd) is 0.27 nM.

In the case of B4, the dissociation constant (Kd) was 0.34 nM.

On to B5, for which the dissociation constant Kd is 0.19 nM.

For B6, the dissociation constant (Kd) amounted to 0.39 nM.

For another assay, the target named is T2, recombinant human CTLA-4 protein (human, UniProt P16410 36-161).
T2 construct: Recombinant protein used as analyte in SPR/Octet; also called hCTLA-4; CD152
T2 sequence (looked up): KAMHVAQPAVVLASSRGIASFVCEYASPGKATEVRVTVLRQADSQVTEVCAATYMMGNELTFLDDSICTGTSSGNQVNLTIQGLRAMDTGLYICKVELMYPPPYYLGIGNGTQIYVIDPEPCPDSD
Kind of assay: SPR (Pioneer FE) or Octet (Red96e), 25 C; IgG captured by anti-human Fc or AHC sensor, hCTLA-4 as analyte. (In general: BLI is a label-free optical method that tracks binding on a fibre tip over time.)
Text: as §1
Regarding B1, the Kd stood at 0.41 nM.

With B2, the dissociation constant Kd stood at 1.6 nM.

With B3, the Kd stood at 0.39 nM.

Take B5: the Kd came out at 1.4 nM.

As to B6, the Kd was 0.46 nM.

A further assay has as its target T1, recombinant mouse CTLA-4 protein. Kind of assay: SPR (Pioneer FE) or Octet (Red96e), 37 C; IgG captured by anti-human Fc or AHC sensor, mCTLA-4 as analyte.
Text: as §1
Turning to B1, the Kd was 0.4 nM.

Consider B2, for which the Kd is 0.23 nM.

For B3, the Kd amounted to 0.27 nM.

In the case of B4, the Kd turned out to be 0.33 nM.

As for B5, the Kd turned out to be 0.27 nM.

With B6, the equilibrium dissociation constant (Kd) came to 0.53 nM.

Another assay has as its target T2, recombinant human CTLA-4 protein. Put plainly: SPR (Pioneer FE) or Octet (Red96e), 37 C; IgG captured by anti-human Fc or AHC sensor, hCTLA-4 as analyte.
Text: as §1
For B1, the dissociation constant Kd came out at 0.67 nM.

As for B2, the dissociation constant Kd was determined as 1.5 nM.

On to B3, for which the dissociation constant Kd worked out at 0.39 nM.

As for B5, the Kd was 1.3 nM.

Turning to B6, the Kd came to 0.44 nM.
